In patent publication US20200318066A1 one finds increase in fluorescence intensity data, which are given here for one substance.

In test [1] the target is H-2Kb (MHC-I) presenting the ovalbumin epitope SIINFEKL (SEQ ID NO: 54) (mouse). The test can be described thus: flow cytometry, 25-D1.16 staining of monocytes in OVA-loaded splenocytes against SQZ only, 2 and 4 h after SQZ.
Test [2] has the same target. The test can be described thus: flow cytometry, 25-D1.16 staining of T, B and NK cells in OVA-loaded splenocytes against SQZ only, 2 and 4 h after SQZ. (Flow cytometry measures light scatter and fluorescence of single cells or particles in a stream.)

25-D1.16 antibody: the figures for the increase in fluorescence intensity in test [1] and in test [2] were greater than 10% and greater than 40%, respectively.
